# Literature values, collected in PMC6605686.
# Target: Glu325 (UniProt position 325, TLHMFEVPFLL)
# Assay: kinetics
# Settings: sugar binding to LacY; apparent pK of galactoside affinity
substance,measurement,value
Lactose permease (LacY) (Escherichia coli),pKa,∼10.5
